Biological target: HLA-B*0701 (as printed in the head of Table XXII) (human)
Experiment: competitive inhibition of radiolabeled standard peptide binding to purified HLA

Which IC50 does the source give for “HBV ENV 313 analog with F at position 1 (peptide; other documents disagree on this pair)” here?
Its IC50 is 24 nM.
